Tests used:
Format in all cases: cell-based, human
[1] = system: hPGCLCs in P-ELS; experiment: hPGCLC specification in P-ELS; settings: P-ELS treated with 0.4 μM or 2 μM
Excerpt: (§1) Cell lines. hPSC lines used in this study include H1 human ES cell (WA01, WiCell; NIH registration number: 0043), H9 human ES cell (WA09, WiCell; NIH registration number: 0062) and 1196a (a human iPSC line from the University of Michigan Pluripotent Stem Cell Core31). All hPSC lines have been authenticated by original sources as well as in-house by immunostaining for pluripotency markers and successful differentiation to the three germ layers. All hPSC lines are maintained in a feeder-free system for at least ten passages and authenticated as karyotypically normal. Karyotype analysis was performed by Cell Line Genetics. All hPSC lines are tested negative for mycoplasma contamination (LookOut Mycoplasma PCR Detection Kit, Sigma-Aldrich). Cell culture. hPSCs were maintained in a standard feeder-free culture system using mTeSR medium (mTeSR; STEMCELL Technologies) or TeSR-E8 medium (Essential 8 or E8; STEMCELL Technologies) and lactate dehydrogenase-elevating virus (LDEV)-free, human ES cell-qualified reduced growth factor basement membrane matrix Geltrex (Thermo Fisher Scientific; derived from Engelbreth-Holm-Swarm tumors similarly to Matrigel). Cell cultures were visually examined during each passage to ensure absence of spontaneously differentiated, mesenchymal-like cells in culture. All hPSCs were used before reaching P70. Device fabrication. […]

[2] = system: PrePS-EPI-like cells in P-ELS; experiment: Posterior primitive streak-like cell development in P-ELS with antagonists in the induction channel; settings: prolonged culture to t=48 h, IWR1 10 μM in induction channel
Excerpt: as §1, with “fabrication. The microfluidic device consists of a polydimethylsiloxane (PDMS) structure layer bonded to a coverslip. The PDMS structure layer is made by mixing PDMS curing agent and base polymer (Sylgard 184; Dow Coming) at a ratio of 1:10 before casting PDMS prepolymer onto a microfabricated silicon mold and baking at 110° C. for 40 min. Medium reservoirs (8 mm in diameter) and gel-loading ports (1.2 mm in diameter) were then punched into the PDMS structure layer using Harris Uni-Core punch tools (Ted Pella). After cleaning with ethanol and air plasma activation, the PDMS structure layer was bonded to a coverslip before baking at 80° C. overnight. Before usage, the microfluidic device was sterilized under UV light for 30 min.” for “fabrication.”

[3] = system: embryonic-like sacs (P-ELS, A-ELS); experiment: Microfluidic generation of asymmetric embryonic-like sacs with morphogens in the induction channel; settings: for Cyst phenotype obtained: 50 ng ml^−1 each, supplemented into the induction channel
Excerpt: Cell lines. hPSC lines used in this study include H1 human ES cell (WA01, WiCell; NIH registration number: 0043), H9 human ES cell (WA09, WiCell; NIH registration number: 0062) and 1196a (a human iPSC line from the University of Michigan Pluripotent Stem Cell Core31). All hPSC lines have been authenticated by original sources as well as in-house by immunostaining for pluripotency markers and successful differentiation to the three germ layers. All hPSC lines are maintained in a feeder-free system for at least ten passages and authenticated as karyotypically normal. Karyotype analysis was performed by Cell Line Genetics. All hPSC lines are tested negative for mycoplasma contamination (LookOut Mycoplasma PCR Detection Kit, Sigma-Aldrich). Cell culture. hPSCs were maintained in a standard feeder-free culture system using mTeSR medium (mTeSR; STEMCELL Technologies) or TeSR-E8 medium (Essential 8 or E8; STEMCELL Technologies) and lactate dehydrogenase-elevating virus (LDEV)-free, human ES cell-qualified reduced growth factor basement membrane matrix Geltrex (Thermo Fisher Scientific; derived from Engelbreth-Holm-Swarm tumors similarly to Matrigel). Cell cultures were visually examined during each passage to ensure absence of spontaneously differentiated, mesenchymal-like cells in culture. All hPSCs were used before reaching P70. Device fabrication. The microfluidic device consists of a polydimethylsiloxane (PDMS) structure layer bonded to a coverslip. The PDMS structure layer is made by mixing PDMS curing agent and base polymer (Sylgard 184; Dow Coming) at a ratio of 1:10 before casting PDMS prepolymer onto a microfabricated silicon mold and baking at 110° C. for 40 min. Medium reservoirs (8 mm in diameter) and gel-loading ports (1.2 mm in diameter) were then punched into the PDMS structure layer using Harris Uni-Core punch tools (Ted Pella). After cleaning with ethanol and air plasma activation, the PDMS structure layer was bonded to a coverslip before baking at 80° C. overnight. Before usage, the microfluidic device was sterilized under UV light for 30 min. Geltrex diluted in mTeSR (8 mg ml^−1) was then injected into the central gel channel and allowed to cure for 10 min at 37° C. in an incubator. The central gel channel was separated from the cell loading and induction channels by trapezoid-shaped supporting posts. Diluted Geltrex matrix was contained in the gel channel by supporting posts owing to surface tension. Upon gelation, Geltrex matrix contracts, generating concave Geltrex pockets between supporting posts. mTeSR medium was immediately added to medium reservoirs to fill both the cell loading and induction channels. The microfluidic device was then incubated at 37° C. and 5% CO2, for 24 h to stabilize the Geltrex matrix in the gel channel. Microfluidic assays. Colonies of hPSCs were dissociated by Accutasc. (Sigma-Aldrich) at 37° C., for 10 min before being suspended in mTeSR as single cells. Cells were then centrifuged and resuspended in mTeSR, containing 10 μM Y27632 (Tocris), a ROCK inhibitor that prevents dissociation-induced apoptosis of hPSCs32, at a concentration of 8×10^6 cells per ml. After aspirating mTeSR from medium reservoirs, 10 μl hPSC suspension was introduced into the cell-loading channel (t=−18 h), The microfluidic device was then tilted 90° for 10 min to allow cell settlement into Geltrex pockets and their clustering and adhesion to Geltrex matrix. Medium reservoirs were then refilled with fresh mTeSR medium containing 10 μM Y27632. […]

O=C(NNc1nc2cc(F)ccc2n2cccc12)c1cnccn1 [SC144]
Effect on hPGCLC specification [1]: did not affect

O=C(Nc1cccc2cccnc12)c1ccc(N2C(=O)[C@@H]3[C@H](C2=O)[C@@H]2C=C[C@H]3C2)cc1 [IWR1]
Effect on progressive development of P-ELS [2]: does not affect

B1: BMP4: Bone Morphogenic Protein 4 (R&D Systems) (protein, UniProt P12644 293-408, looked up)
Bone morphogenetic protein 4: SPKHHSQRARKKNKNCRRHSLYVDFSDVGWNDWIVAPPGYQAFYCHGDCPFPLADHLNSTNHAIVQTLVNSVNSSIPKACCVPTELSAISMLYLDEYDKVVLKNYQEMVVEGCGCR
Cysts differentiated into asymmetrical E-cadherin+ sacs (P-ELS) ([3]; BMP4 50 ng ml^−1 in induction channel from t=0 h, t=36 h): 92%
Cysts patterned to amniotic ectoderm-like fate (A-ELS) ([3]; BMP4 in induction channel, IWP2 and noggin in cell-loading channel, t=36 h): 96%

B2: WNT3A: exogenous Wnt protein (R&D Systems) (protein, UniProt P56704 19-352, looked up)
Protein Wnt-3a: SYPIWWSLAVGPQYSSLGSQPILCASIPGLVPKQLRFCRNYVEIMPSVAEGIKIGIQECQHQFRGRRWNCTTVHDSLAIFGPVLDKATRESAFVHAIASAGVAFAVTRSCAEGTAAICGCSSRHQGSPGKGWKWGGCSEDIEFGGMVSREFADARENRPDARSAMNRHNNEAGRQAIASHMHLKCKCHGLSGSCEVKTCWWSQPDFRAIGDFLKDKYDSASEMVVEKHRESRGWVETLRPRYTYFKVPTERDLVYYEASPNFCEPNPETGSFGTRDRTCNVSSHGIDGCDLLCCGRGHNARAERRREKCRCVFHWCCYVSCQECTRVYDVHTCK
Cyst phenotype obtained [3]: columnar epiblast-like cysts containing OCT4^+NANOG^+, COX2^−EOMES^−T^− EPILCs
Requirement for embryonic-like sac formation ([3]; induction channel, with or without BMP4): dispensable

B3: Activin A: exogenous activin protein (R&D Systems) (protein, UniProt P08476 311-426, looked up)
Inhibin beta A chain: GLECDGKVNICCKKQFFVSFKDIGWNDWIIAPSGYHANYCEGECPSHIAGTSGSSLSFHSTVINHYRMRGHSPFANLKSCCVPTKLRPMSMLYYDDGQNIIKKDIQNMIVEECGCS
modifications: Inhibin beta A chain
Cyst phenotype obtained [3]: cysts containing OCT4^+NANOG^+EPILCs intermixed with EOMES^+T^+CDX2^− anterior primitive streak-like cells

Source: patent publication US20220331371A1, “DEVELOPMENT OF EMBRYONIC-LIKE TISSUE FROM STEM CELLS” (The Regents of the University of Michigan, priority 2019, published 2022)
